Reference: patent US6916470

Target: human mpl (myeloproliferative leukemia receptor, TPO receptor) expressed on stably transfected BaF3 cells (human) (UniProt P40238)
Assay: cell-based or functional assay

Q: With “human thrombopoietin (TPO), expressed in COS cells from cDNA cloned from human fetal liver; used as TPO-containing COS supernatant (from UniProt P40225 22-353) (ligand)” as the substance, how does the proliferation of mpl-expressing BaF3 cells (activity of the supernatant) read?
A: The proliferation of mpl-expressing BaF3 cells (activity of the supernatant) was 300000 U/ml.
